From the supplement of paper PMC10065799, “High-throughput profiling of sequence recognition by tyrosine kinases and SH2 domains using bacterial peptide display” (eLife, 2023)

System: c-Src
Assay: phosphorylation enrichment, bacterial display (enrichment ratio); higher = better substrate or ligand; peptides without Tyr show the background
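Wherever SH2 binding enrichment of the phosphorylated peptide, bacterial display is given: peptide library displayed on the E. coli surface as eCPX fusions, selected cells deep-sequenced, score is each peptide's frequency after selection divided by its frequency in the input.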
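Wherever phosphorylation enrichment, bacterial display is given: 11-residue human phosphosite peptides and single-mutation variants displayed on the E. coli surface, counted by deep sequencing, each peptide's frequency after selection divided by its frequency in the unselected input library; frequency after pTyr selection over input frequency; kinase dosed for 20-30% of maximal phosphorylation in three min.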

Sequence	phosphorylation enrichment
IDSTPYRQWFE [RPS8_Y109_YF]	0.368
FETSHYPASPD [CTNND2_Y1217_YF]	0.31
NPIGLYSAETL [LDB3_Y202]	0.962
QELRRYLESGV [MICA_Y194_K196E]	0.465
KTSGNYLPVTG [WDR19_Y28_A30P]	0.402
IRYPPYTDWNQ [ALDH3B2_Y365_H361R]	0.418
LHVKMYNFLRS [ADGRG7_Y760_R756H]	0.711
KSDVVYTDWKK [ORM1_Y175]	1.65
RLVTRYIFNRE [HLA-DQB1_Y62_Y58L_YF]	0.462
GVPLGYPIKAS [ELN_Y206_P211S]	0.381
DAANNYARGHY [TUBA3E_Y103_S101N]	0.442
REVPVYISEDS [SYNM_Y460_G462S]	1.56
GKSDPYHATTG [GJA1_Y247_S251T]	0.361
RGSQQYRALPV [TUBB8_Y281_T285P]	0.588
YNDSTYNQQLI [ZPLD1_Y198]	0.51
LLFRVYGLESL [INSR_Y94]	0.565
TNFCLYLRSLE [MTM1_Y71_R69C_YF]	0.612

Sequence	phosphorylation enrichment
EVDGLYREAPI [MYL12B_Y143_E141G]	0.482
EITSHYRHLLR [ZBTB46_Y14]	0.475
KPNMNYDKLSR [FLI1_Y332]	0.418
YDGKDYIALKE [HLA-A_Y147_N151K]	0.377
PLDGEYFTLHI [TP53_Y327_Q331H]	2.97
SHGKQYRVPSD [HHIPL2_Y395_R394Q]	0.353
TKEPKYGGAGS [KIAA1210_Y1615_E1616G]	0.409
AKKIKYFEGVS [PRKDC_Y682]	0.387
AEPNIYQEKLS [USP54_Y1233_D1231N]	0.679
YETVKYINNER [ABCB7_Y345_F346I]	1.1
WVFNHYRWFIW [BRCA2_Y2624_I2627F_YF]	0.409
GSIQQYTYKQE [PRG4_Y1271_I1272T]	0.444
EPVSDYINANI [PTPN11_Y304]	0.38
KEELAYLKKNH [KRT14_Y248]	0.35
NFATLYLKIYH [PDE6B_Y219]	0.403
LRVGFYESDVM [A2M_Y708]	1.33

Target: Grb2 SH2 (UniProt P62993)
Assay: SH2 binding enrichment of the phosphorylated peptide, bacterial display (enrichment ratio); higher = better substrate or ligand; peptides without Tyr show the background

Sequence	SH2 binding enrichment
IDSTPYRQWFE [RPS8_Y109_YF]	0.758
FETSHYPASPD [CTNND2_Y1217_YF]	1.03
NPIGLYSAETL [LDB3_Y202]	0.813
QELRRYLESGV [MICA_Y194_K196E]	0.729
IRYPPYTDWNQ [ALDH3B2_Y365_H361R]	0.76
KSDVVYTDWKK [ORM1_Y175]	0.757
DAANNYARGHY [TUBA3E_Y103_S101N]	0.85
REVPVYISEDS [SYNM_Y460_G462S]	1.07
RGSQQYRALPV [TUBB8_Y281_T285P]	0.944
YNDSTYNQQLI [ZPLD1_Y198]	0.784
LLFRVYGLESL [INSR_Y94]	0.718
EITSHYRHLLR [ZBTB46_Y14]	0.77
KPNMNYDKLSR [FLI1_Y332]	0.895
YDGKDYIALKE [HLA-A_Y147_N151K]	0.891
SHGKQYRVPSD [HHIPL2_Y395_R394Q]	0.686
AEPNIYQEKLS [USP54_Y1233_D1231N]	1.12
YETVKYINNER [ABCB7_Y345_F346I]	1.48
LRVGFYESDVM [A2M_Y708]	0.934

Next, values leading:

SH2 binding enrichment	Sequence
0.758	KTSGNYLPVTG [WDR19_Y28_A30P]
1.28	LHVKMYNFLRS [ADGRG7_Y760_R756H]
0.851	RLVTRYIFNRE [HLA-DQB1_Y62_Y58L_YF]
0.783	GVPLGYPIKAS [ELN_Y206_P211S]
0.771	GKSDPYHATTG [GJA1_Y247_S251T]
0.773	TNFCLYLRSLE [MTM1_Y71_R69C_YF]
0.753	EVDGLYREAPI [MYL12B_Y143_E141G]
0.852	PLDGEYFTLHI [TP53_Y327_Q331H]
1.08	TKEPKYGGAGS [KIAA1210_Y1615_E1616G]
0.79	AKKIKYFEGVS [PRKDC_Y682]
0.941	WVFNHYRWFIW [BRCA2_Y2624_I2627F_YF]
0.604	GSIQQYTYKQE [PRG4_Y1271_I1272T]
0.819	EPVSDYINANI [PTPN11_Y304]
0.912	KEELAYLKKNH [KRT14_Y248]
0.887	NFATLYLKIYH [PDE6B_Y219]

Target: SHP2-C SH2
Assay: as above

Sequence	SH2 binding enrichment
IDSTPYRQWFE [RPS8_Y109_YF]	0.744
FETSHYPASPD [CTNND2_Y1217_YF]	0.992
NPIGLYSAETL [LDB3_Y202]	0.769
QELRRYLESGV [MICA_Y194_K196E]	0.596
IRYPPYTDWNQ [ALDH3B2_Y365_H361R]	0.76
KSDVVYTDWKK [ORM1_Y175]	0.885
DAANNYARGHY [TUBA3E_Y103_S101N]	0.558
REVPVYISEDS [SYNM_Y460_G462S]	0.632
RGSQQYRALPV [TUBB8_Y281_T285P]	1.49
YNDSTYNQQLI [ZPLD1_Y198]	0.371
LLFRVYGLESL [INSR_Y94]	0.734
EITSHYRHLLR [ZBTB46_Y14]	0.661
KPNMNYDKLSR [FLI1_Y332]	0.725
YDGKDYIALKE [HLA-A_Y147_N151K]	0.648
SHGKQYRVPSD [HHIPL2_Y395_R394Q]	0.475
AEPNIYQEKLS [USP54_Y1233_D1231N]	0.916
YETVKYINNER [ABCB7_Y345_F346I]	1.24
LRVGFYESDVM [A2M_Y708]	1.02

More lines, now with the values ahead:

SH2 binding enrichment	Sequence
0.913	KTSGNYLPVTG [WDR19_Y28_A30P]
1.07	LHVKMYNFLRS [ADGRG7_Y760_R756H]
0.728	RLVTRYIFNRE [HLA-DQB1_Y62_Y58L_YF]
0.581	GVPLGYPIKAS [ELN_Y206_P211S]
0.778	GKSDPYHATTG [GJA1_Y247_S251T]
0.644	TNFCLYLRSLE [MTM1_Y71_R69C_YF]
1.07	EVDGLYREAPI [MYL12B_Y143_E141G]
0.594	PLDGEYFTLHI [TP53_Y327_Q331H]
0.983	TKEPKYGGAGS [KIAA1210_Y1615_E1616G]
0.83	AKKIKYFEGVS [PRKDC_Y682]
0.693	WVFNHYRWFIW [BRCA2_Y2624_I2627F_YF]
0.599	GSIQQYTYKQE [PRG4_Y1271_I1272T]
0.911	EPVSDYINANI [PTPN11_Y304]
0.761	KEELAYLKKNH [KRT14_Y248]
0.859	NFATLYLKIYH [PDE6B_Y219]

Target: c-Src SH2
Assay: as above

Sequence	SH2 binding enrichment
IDSTPYRQWFE [RPS8_Y109_YF]	0.417
FETSHYPASPD [CTNND2_Y1217_YF]	0.383
NPIGLYSAETL [LDB3_Y202]	0.486
QELRRYLESGV [MICA_Y194_K196E]	0.397
IRYPPYTDWNQ [ALDH3B2_Y365_H361R]	0.767
KSDVVYTDWKK [ORM1_Y175]	0.505
DAANNYARGHY [TUBA3E_Y103_S101N]	0.509
REVPVYISEDS [SYNM_Y460_G462S]	0.551
RGSQQYRALPV [TUBB8_Y281_T285P]	0.646
YNDSTYNQQLI [ZPLD1_Y198]	0.568
LLFRVYGLESL [INSR_Y94]	0.588
EITSHYRHLLR [ZBTB46_Y14]	0.491
KPNMNYDKLSR [FLI1_Y332]	1.59
YDGKDYIALKE [HLA-A_Y147_N151K]	0.495
SHGKQYRVPSD [HHIPL2_Y395_R394Q]	0.403
AEPNIYQEKLS [USP54_Y1233_D1231N]	0.808
YETVKYINNER [ABCB7_Y345_F346I]	11.8
LRVGFYESDVM [A2M_Y708]	4.14

Continued, values first:

SH2 binding enrichment	Sequence
0.493	KTSGNYLPVTG [WDR19_Y28_A30P]
0.827	LHVKMYNFLRS [ADGRG7_Y760_R756H]
0.5	RLVTRYIFNRE [HLA-DQB1_Y62_Y58L_YF]
0.423	GVPLGYPIKAS [ELN_Y206_P211S]
0.416	GKSDPYHATTG [GJA1_Y247_S251T]
0.525	TNFCLYLRSLE [MTM1_Y71_R69C_YF]
0.528	EVDGLYREAPI [MYL12B_Y143_E141G]
0.365	PLDGEYFTLHI [TP53_Y327_Q331H]
0.487	TKEPKYGGAGS [KIAA1210_Y1615_E1616G]
0.479	AKKIKYFEGVS [PRKDC_Y682]
0.587	WVFNHYRWFIW [BRCA2_Y2624_I2627F_YF]
0.384	GSIQQYTYKQE [PRG4_Y1271_I1272T]
0.466	EPVSDYINANI [PTPN11_Y304]
0.482	KEELAYLKKNH [KRT14_Y248]
0.539	NFATLYLKIYH [PDE6B_Y219]
